Blank lines part the entries; values can stand above or below the molecule they belong to.
What was measured:
[1] = molecular target: T1, S100A1 (Rattus norvegicus, UniProt P35467); conditions: read-out: KD of S100A1 for RyRP12; ref [36]; [47]; cited from earlier work
T1 sequence (P35467 2-94 limits assumed): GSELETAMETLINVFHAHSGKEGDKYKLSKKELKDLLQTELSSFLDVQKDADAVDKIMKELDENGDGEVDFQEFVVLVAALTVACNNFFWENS

[2] = molecular target: RyRP12 RyRP12 (UniProt P21817); conditions: cited from earlier work
[3] = molecular target: TRTK12 (CapZ peptide) TRTK12 (Homo sapiens) (UniProt P52907); conditions: cited from earlier work
[4] = molecular target: T2, TAMRA-TRTK12 (CapZ alpha subunit peptide) (not fully specified); experiment: fluorescence anisotropy
T2 chain: {TAMRA}-TRTKIDWNKILS-NH2

[5] = molecular target: T3, TRTK12 (CapZ alpha subunit peptide) (not fully specified)
T3 chain: Ac-TRTKIDWNKILS-NH2

Molecule: KKAVWHKLLSKQ [RyRP12]
Kd [1]: 8 µM

Molecule: S100A1 (from UniProt P35467)
Kd [2]: 8 µM

Molecule: S100B (from UniProt P04631)
Kd [3]: 7 µM

Kd [4]: 1 µM
Kd [5]: 23 µM
B1: S100A1 (protein)
chain: MGSELETAMETLINVFHAHSGKEGDKYKLSKKELKDLLQTELSSFLDVQKDADAVDKIMKELDENGDGEVDFQEFVVLVAALTVACNNFFWENS
